From article PMC2709985 (Biochemistry, 2009) come the findings set out here.

The target of series [1] is T1, Sfp (Bacillus subtilis, UniProt P39135).
T1 sequence (P39135 1-224): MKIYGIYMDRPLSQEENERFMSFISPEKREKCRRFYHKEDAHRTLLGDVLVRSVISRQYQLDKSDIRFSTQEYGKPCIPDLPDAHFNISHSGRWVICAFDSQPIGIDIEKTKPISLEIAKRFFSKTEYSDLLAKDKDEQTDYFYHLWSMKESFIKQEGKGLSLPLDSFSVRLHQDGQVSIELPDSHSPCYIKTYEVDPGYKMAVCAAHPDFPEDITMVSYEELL
Nature of the series: tritium incorporation into apo MBP-PhsA-His6. In kind it is biochemical. The following applies: acceptor apo MBP-PhsA-His6; labelled compound.

Series [2] has as its target T1, Sfp. Nature of the series: fluorescent labelling of apo MBP-PhsA-His6, SDS-PAGE. The series is classed as biochemical. The note with it: acceptor apo MBP-PhsA-His6; labelled compound.
Substrate in series [3]: CC(=O)N[C@@H](CCC(=O)O)C(=O)O
Nature of the series: ATP-PPi exchange assay. The series is classed as biochemical, Streptomyces viridochromogenes. The note with it: holo form (phosphopantetheinylated by Sfp), apparent constant.

Substrate in series [4]: CC(=O)N[C@@H](CC[PH](=O)O)C(=O)O
Nature of the series: ATP-PPi exchange assay. The series is classed as biochemical, Streptomyces viridochromogenes. The following applies: holo form (phosphopantetheinylated by Sfp), apparent constant.

With `CC(=O)SCCNC(=O)CCNC(=O)[C@H](O)C(C)(C)COP(=O)(O)OP(=O)(O)OC[C@H]1O[C@@H](n2cnc3c(N)ncnc32)[C@H](O)[C@@H]1OP(=O)(O)O` [[^3H]acetyl-CoA], the “tritium incorporation into apo MBP-PhsA-His6” value on Sfp [1] is “[^3H]acetyl-CoA was utilized as a cosubstrate, resulting in a time-dependent increase”.

With `CC1=CC(C)=[N+]2C1=Cc1ccc(CCC(=O)NCCN3C(=O)CC(SCCNC(=O)CCNC(=O)[C@H](O)C(C)(C)COP(=O)(O)OP(=O)(O)OC[C@H]4O[C@@H](n5cnc6c(N)ncnc65)[C@H](O)[C@@H]4OP(=O)(O)O)C3=O)n1[B-]2(F)F` (some centres unmarked) [BODIPY-FL-N-(2-aminoethyl)maleimidyl-S-CoA], the “fluorescent labelling of apo MBP-PhsA-His6, SDS-PAGE” value on Sfp [2] was “CoA analogue BODIPY-FL-N-(2-aminoethyl)maleimidyl-S-CoA was employed to install a fluorescently labeled phosphopantetheine arm”.

B1: MBP−PhsA−His6 (Streptomyces viridochromogenes) (protein)
chain: MTAATPDTAPDRTGPSPGACPVVAEFARRAQAGPDRPAVVLPEETVDYRELAARADAVARALLDSRGEGSEPVPLMVLHPAWMLAACLGVLKAGKYYVPLNPHHPDARNRDLLARLGAALVVTDGAVPGRLPGRITVLSVGELDVRPGTPGEPGPAVAPDQWAYALYTSGSTGLPKGILQNRADMRQNIDRHAALGIGPEDRVTLINADGFVAAVSNPYMALLNGAALVPYSFQRDGVHDLIDRLDAAGTTVYYSFPSFLRQAAAVSEGRTTDRVRLAYLGGESVHSSDVLAARRLFPAATVAVGLNSTETGLTRLRLIPPGAEVPDPVPVGGPVPGVEVRVEASPGRPAAVGEAGRIVVRSAFLHAAQWTDQGPRPLTEAVPEADSGTACEPAPRDFRTGDRGRLDGTGQLVHLGRVDGMVKVRGYRVETVEVESAVSAVTGVAEAAVVPYETAEHATELAAYVVAKDPDLTDAALRRALSETLPTHLVPSSVLLVPRLPRTRNGKIDRKALPDPASGTSGTAVSRPAPAHTPAPAPGDGPDEARARVLGQVGEIWSDVLGAGPVLPGDDFFSLGGTSISALRVVSRIRKELGVPLRLAVIFETPSLEAVAESVLRELKGT
For B1, in the series “ATP-PPi exchange assay [3]”, the Km was found to be 493 ± 82 µM, the kcat was determined as 0.48 ± 0.025 s⁻¹ and the kcat/Km is 973 ± 167 M⁻¹ s⁻¹. Further, in the series “ATP-PPi exchange assay [4]”, the Michaelis-Menten constant (Km) was 254 ± 44 µM, the turnover number (kcat) was determined as 2.08 ± 0.108 s⁻¹ and the catalytic efficiency (kcat/Km) stood at 8170 ± 1500 M⁻¹ s⁻¹.

Usually Km stands for the concentration of substrate that gives half-maximal velocity. The kcat is the maximal rate divided by the concentration of active sites. Broadly, the kcat/Km is the second-order rate constant that governs catalysis at low substrate concentration.
